The values below come from publication PMC8922275, “DNA-Dependent Binding of Nargenicin to DnaE1 Inhibits Replication in Mycobacterium tuberculosis” (ACS Infectious Diseases, 2022).

The target in series [1] is T1, DNA polymerase III α (Pol IIIα) (Escherichia coli, UniProt P10443).
T1 construct: gene dnaE
Nature of the series: real-time fluorescence-quench DNA polymerase assay. Type of series: biochemical.

For another series, the target named is DnaE (Staphylococcus aureus, UniProt Q5HF71). As to the kind of experiment: real-time fluorescence-quench DNA polymerase assay (text […]; Figure […] legend […]). The class given is biochemical.
The next series deals with T2, DnaE1 (Mycobacterium tuberculosis, UniProt P9WNT7).
T2 construct: full-length
T2 sequence (P9WNT7 1-1184): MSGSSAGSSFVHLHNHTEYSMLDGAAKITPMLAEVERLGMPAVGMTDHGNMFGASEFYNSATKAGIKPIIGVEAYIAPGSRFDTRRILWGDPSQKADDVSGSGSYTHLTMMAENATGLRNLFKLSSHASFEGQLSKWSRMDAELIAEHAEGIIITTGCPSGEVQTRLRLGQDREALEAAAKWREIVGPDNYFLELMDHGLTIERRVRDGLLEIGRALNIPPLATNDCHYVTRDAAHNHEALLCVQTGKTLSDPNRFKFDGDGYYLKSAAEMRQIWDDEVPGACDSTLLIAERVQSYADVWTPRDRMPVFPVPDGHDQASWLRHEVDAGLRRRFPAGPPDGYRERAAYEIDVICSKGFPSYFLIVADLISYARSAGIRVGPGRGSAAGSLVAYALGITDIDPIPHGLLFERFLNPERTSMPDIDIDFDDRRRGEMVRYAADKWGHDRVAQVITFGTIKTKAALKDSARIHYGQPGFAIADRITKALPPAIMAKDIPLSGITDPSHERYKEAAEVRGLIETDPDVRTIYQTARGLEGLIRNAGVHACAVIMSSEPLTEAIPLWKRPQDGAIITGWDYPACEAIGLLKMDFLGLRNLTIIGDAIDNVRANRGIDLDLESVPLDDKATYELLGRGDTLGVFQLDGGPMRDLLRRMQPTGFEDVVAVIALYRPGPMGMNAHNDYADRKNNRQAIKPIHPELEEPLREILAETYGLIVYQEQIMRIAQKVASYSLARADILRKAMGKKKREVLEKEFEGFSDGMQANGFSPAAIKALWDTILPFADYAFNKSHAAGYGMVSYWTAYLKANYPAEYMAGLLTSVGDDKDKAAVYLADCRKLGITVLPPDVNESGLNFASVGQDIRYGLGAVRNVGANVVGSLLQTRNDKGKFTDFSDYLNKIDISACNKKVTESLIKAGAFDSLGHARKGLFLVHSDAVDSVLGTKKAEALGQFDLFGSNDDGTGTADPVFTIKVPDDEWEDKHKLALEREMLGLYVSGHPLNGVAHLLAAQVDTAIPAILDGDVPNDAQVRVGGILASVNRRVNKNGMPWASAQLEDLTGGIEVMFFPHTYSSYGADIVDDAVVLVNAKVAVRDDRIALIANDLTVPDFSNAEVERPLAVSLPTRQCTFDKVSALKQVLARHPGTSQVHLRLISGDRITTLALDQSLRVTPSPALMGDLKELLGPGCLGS
As to the kind of experiment: ([…] Å) with DNA; […]. The class given is biochemical.

In series [2] the target is T3, DnaE1 (replicative DNA polymerase) (Mycobacterium tuberculosis, UniProt P9WNT7 1-1184).
T3 sequence: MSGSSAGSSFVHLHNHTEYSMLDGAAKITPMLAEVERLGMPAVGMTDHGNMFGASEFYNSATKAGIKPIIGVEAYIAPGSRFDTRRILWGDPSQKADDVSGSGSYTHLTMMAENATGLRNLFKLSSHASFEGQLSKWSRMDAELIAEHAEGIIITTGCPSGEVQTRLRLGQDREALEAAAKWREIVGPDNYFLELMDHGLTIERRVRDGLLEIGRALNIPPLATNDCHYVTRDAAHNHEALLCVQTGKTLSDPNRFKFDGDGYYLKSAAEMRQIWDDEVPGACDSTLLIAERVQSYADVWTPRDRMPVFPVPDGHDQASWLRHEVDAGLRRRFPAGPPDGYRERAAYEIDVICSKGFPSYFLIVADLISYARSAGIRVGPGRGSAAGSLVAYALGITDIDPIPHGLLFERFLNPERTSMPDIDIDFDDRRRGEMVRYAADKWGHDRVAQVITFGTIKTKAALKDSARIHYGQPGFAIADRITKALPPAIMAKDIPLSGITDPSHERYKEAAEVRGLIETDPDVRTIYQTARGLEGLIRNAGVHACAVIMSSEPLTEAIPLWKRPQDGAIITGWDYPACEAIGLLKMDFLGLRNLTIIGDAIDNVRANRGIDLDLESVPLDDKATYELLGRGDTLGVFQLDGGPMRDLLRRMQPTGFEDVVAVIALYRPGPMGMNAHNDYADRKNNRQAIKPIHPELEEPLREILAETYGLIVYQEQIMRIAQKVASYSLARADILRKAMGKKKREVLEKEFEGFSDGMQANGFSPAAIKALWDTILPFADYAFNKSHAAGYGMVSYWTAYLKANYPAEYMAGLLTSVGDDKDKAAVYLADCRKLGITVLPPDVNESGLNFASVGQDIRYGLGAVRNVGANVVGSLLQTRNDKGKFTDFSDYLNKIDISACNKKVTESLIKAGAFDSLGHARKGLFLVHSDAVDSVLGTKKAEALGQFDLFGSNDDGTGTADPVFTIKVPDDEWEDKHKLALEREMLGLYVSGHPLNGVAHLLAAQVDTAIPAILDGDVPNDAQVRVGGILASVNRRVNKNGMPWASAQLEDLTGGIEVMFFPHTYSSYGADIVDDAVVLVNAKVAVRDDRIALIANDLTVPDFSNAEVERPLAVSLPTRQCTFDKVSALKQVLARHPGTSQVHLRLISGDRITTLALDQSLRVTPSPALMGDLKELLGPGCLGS
As to the kind of experiment: fluorescence anisotropy. The note with it: protein: recombinant; label: 5'-Cy3 on primer (strand 1); 24 bp duplex, 5' overhang 30 nt on template. For orientation: Polarisation of emitted light reports the rotation of a fluorescent probe.

Series [3] has as its target Pol IIIα (replicative DNA polymerase) (Escherichia coli, UniProt P10443 1-1160). As to the kind of experiment: fluorescence anisotropy; Anisotropy: 5 nM DNA, 25 mM HEPES pH 7.5, 50 mM potassium glutamate, 2 mM DTT, 0.5 mg/mL BSA, 24 °C. Cryo-EM: 20 mM PIPES pH 7.0, 50 mM potassium glutamate, 5 mM MgCl2, 2 mM DTT, 0.01% Tween-20. Particulars: protein: recombinant; label: 5'-Cy3 on primer (strand 1); 24 bp duplex, 5' overhang 30 nt on template.

The target of another series is DnaE S765L (Staphylococcus aureus, UniProt Q9F1K0 1-1065, S765L). Described as above. Particulars: protein: recombinant; label: 5'-Cy3 on primer (strand 1); 24 bp duplex, 5' overhang 30 nt on template.
The target in series [4] is T4, DnaE (replicative DNA polymerase) (Staphylococcus aureus, UniProt Q9F1K0 1-1065).
T4 sequence: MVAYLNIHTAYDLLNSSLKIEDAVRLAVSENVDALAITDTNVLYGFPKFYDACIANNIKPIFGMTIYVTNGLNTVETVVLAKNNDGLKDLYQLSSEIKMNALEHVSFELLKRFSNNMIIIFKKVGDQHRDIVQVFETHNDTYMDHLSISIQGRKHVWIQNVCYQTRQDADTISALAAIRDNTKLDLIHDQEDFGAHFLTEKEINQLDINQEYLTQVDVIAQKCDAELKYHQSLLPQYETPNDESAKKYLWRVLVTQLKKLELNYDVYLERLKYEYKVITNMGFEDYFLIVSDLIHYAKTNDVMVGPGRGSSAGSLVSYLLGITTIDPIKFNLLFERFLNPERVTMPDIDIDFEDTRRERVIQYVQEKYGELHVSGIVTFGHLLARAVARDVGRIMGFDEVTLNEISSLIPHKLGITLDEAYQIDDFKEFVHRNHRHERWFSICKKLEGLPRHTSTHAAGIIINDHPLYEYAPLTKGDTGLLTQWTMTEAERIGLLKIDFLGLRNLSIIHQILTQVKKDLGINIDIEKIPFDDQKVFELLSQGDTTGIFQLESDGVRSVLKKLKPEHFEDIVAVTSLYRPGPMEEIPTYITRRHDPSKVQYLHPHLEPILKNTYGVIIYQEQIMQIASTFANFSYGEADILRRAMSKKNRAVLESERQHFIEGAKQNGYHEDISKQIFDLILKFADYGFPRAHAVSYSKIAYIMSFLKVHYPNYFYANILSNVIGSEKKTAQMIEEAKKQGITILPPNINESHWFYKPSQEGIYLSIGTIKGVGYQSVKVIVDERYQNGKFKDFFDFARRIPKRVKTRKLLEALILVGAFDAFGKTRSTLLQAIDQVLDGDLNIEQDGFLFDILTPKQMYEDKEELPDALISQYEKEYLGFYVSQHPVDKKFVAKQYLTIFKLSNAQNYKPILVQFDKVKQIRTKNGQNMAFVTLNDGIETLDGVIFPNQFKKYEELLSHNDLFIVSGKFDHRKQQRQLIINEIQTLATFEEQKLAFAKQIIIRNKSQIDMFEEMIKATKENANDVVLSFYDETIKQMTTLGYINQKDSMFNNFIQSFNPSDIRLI
Described as above. Particulars: protein: recombinant; label: 5'-Cy3 on primer (strand 1); 24 bp duplex, 5' overhang 30 nt on template.

The target of series [5] is T3, DnaE1 (replicative DNA polymerase). Nature of the series: cryo-EM structure (2.9 Å); 10 uM nargenicin, 5 mM MgCl2. The note with it: protein: recombinant.

T1 sequence (P10443 whole entry): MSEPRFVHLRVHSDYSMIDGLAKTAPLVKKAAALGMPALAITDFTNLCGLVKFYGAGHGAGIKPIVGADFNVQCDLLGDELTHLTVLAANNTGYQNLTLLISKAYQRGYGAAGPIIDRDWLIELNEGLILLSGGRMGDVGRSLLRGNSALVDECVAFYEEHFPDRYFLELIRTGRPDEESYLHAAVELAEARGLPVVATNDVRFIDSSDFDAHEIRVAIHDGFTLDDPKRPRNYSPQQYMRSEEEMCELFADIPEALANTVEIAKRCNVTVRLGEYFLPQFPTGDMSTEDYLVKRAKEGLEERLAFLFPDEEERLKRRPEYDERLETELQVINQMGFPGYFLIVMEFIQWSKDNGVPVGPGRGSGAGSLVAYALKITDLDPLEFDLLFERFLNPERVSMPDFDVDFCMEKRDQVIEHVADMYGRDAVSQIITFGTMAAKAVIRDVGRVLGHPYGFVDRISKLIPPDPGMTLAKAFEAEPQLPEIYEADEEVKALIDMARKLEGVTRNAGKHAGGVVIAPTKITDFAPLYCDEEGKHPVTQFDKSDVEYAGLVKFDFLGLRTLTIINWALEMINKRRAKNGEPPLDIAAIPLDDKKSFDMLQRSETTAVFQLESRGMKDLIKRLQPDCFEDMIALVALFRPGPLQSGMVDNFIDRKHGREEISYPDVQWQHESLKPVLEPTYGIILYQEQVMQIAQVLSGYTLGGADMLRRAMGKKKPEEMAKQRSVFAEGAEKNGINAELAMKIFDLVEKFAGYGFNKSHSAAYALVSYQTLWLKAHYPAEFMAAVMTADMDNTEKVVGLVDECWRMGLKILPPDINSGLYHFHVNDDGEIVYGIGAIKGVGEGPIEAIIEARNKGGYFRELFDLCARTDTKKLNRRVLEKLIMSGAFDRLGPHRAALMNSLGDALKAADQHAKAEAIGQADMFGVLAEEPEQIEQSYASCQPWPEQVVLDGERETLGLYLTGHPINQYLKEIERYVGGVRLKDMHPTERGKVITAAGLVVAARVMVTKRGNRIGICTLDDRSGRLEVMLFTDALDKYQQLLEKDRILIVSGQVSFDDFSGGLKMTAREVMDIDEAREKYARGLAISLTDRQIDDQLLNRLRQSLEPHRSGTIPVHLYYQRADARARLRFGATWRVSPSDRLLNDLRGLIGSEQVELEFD

As usually defined, the IC50 is the concentration that inhibits the measured activity by half. On to `COC1CC2C=CC3C4OC2(/C(C)=C/C(C)C(C(C)O)OC1=O)C3C(O)C(C)C4OC(=O)c1ccc[nH]1` (centres unmarked) [nargenicin], for which the IC50 in series [1] is 13000 nM; against DnaE it was 6 nM; against DnaE1, 125 nM.

B1: primed DNA substrate (anisotropy) (dsDNA)
DNA 1: GGTAACGCCAGGGTTTTCCCAGTC
DNA 2: CGCTCACTGGCCGTCGTTTTACAACGTCGTGACTGGGAAAACCCTGGCGTTACC
A word on the Kd: it is the free concentration of one partner at which half of the binding sites on the other are occupied at equilibrium, for simple one-to-one binding. Take B1: the Kd in series [2] worked out at 250 nM; in series [3], 12000 nM; in the series with DnaE S765L, 85 nM; in series [4], 6 nM.

B2: cryo-EM primer/template substrate (dsDNA)
DNA 1: GCACCTAAAGTTGGGAGTCCTTCGTCCTT
DNA 2: GATAGAGCAGAAGGACGAAGGACTCCCAACTTTAGGTG
modifications: phosphorothioate bond between the last two nt of the primer (T*T)
For the molecule B2, the binding result in series [5] is listed as “binds”.
